The values that follow come from US20250333441A1, “POLYPEPTIDE INHIBITORS AND USES THEREOF” (Neuracle Science Co., Ltd., priority 2021, published 2025).

For one assay, the target named is FAM19A5 protein (Homo sapiens, UniProt Q7Z5A7). Nature of the assay: Co-immunoprecipitation of FLAG-tagged LRRC4 family constructs with recombinant FAM19A5 in HEK293 cells. Format: binding. The following applies: HEK293 cells expressing FLAG-tagged construct, recombinant FAM19A5 protein (1 μM) 30 minutes; anti-FLAG immunoprecipitation. How it is done: To better understand the interaction between FAM19A5 and members of the LRRC4 protein family, HEK293 cells were modified to express a FLAG-tagged member of the LRRC4 protein family, i.e., LRRC4C protein, LRRC4 protein, or LRRC4B protein. Then, the HEK293 cells or primary cortical neurons were treated with recombinant FAM19A5 protein (1 μM) for 30 minutes, and the binding between FAM19A5 protein and the different members of the LRRC4 protein family was assessed using both co-immunoprecipitation and immunofluorescence assays.
Sequence of FAM19A5 protein (Q7Z5A7 44-132): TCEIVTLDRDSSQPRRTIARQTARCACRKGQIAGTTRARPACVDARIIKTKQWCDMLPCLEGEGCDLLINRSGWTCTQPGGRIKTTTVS
For the co-immunoprecipitation assay, cell lysates from the different FAM19A5-treated HEK293 cells were collected and immunoprecipitated with an anti-FLAG antibody, anti-FAM19A5 (1-65) antibody, or a human IgG antibody (control). Immunoprecipitated proteins were immunoblotted with anti-FLAG and anti-FAM19A5 (3-2) antibodies. For the immunofluorescence assay, the HEK293 cells treated with the recombinant FAM19A5 protein were immunostained with anti-FAM19A5 (3-2) (to detect FAM19A5 protein expression) and anti-FLAG antibodies (to detect member of the LRRC4 protein family). The primary cortical neurons treated with the recombinant FAM19A5 protein were immunostained with anti-FAM19A5 (3-2) and anti-LRRC4B antibodies. The nuclei were stained with Hoechst33342 (blue).
To determine the specific motif or domain of the LRRC4B protein that is responsible for the binding to a FAM19A5 protein, various FLAG-tagged LRRC4B deletion constructs were generated (see Table 6 below). HEK293 cells were transfected with the different deletion constructs and then treated with recombinant FAM19A5 protein as described in Example 1. Then, the cell lysates from the different HEK293 cells were immunoprecipitated with the anti-FLAG antibody. The immunoprecipitated proteins were immunoblotted with anti-FLAG and anti-FAM19A5 (3-2) antibodies.
As described in Example 2, all members of the LRRC4 protein family were capable of binding to FAM19A5 protein to varying degrees. Therefore, to compare the bindings domains, the amino acid sequences of the LRRC4B, LRRC4, and LRRC4C proteins were aligned. […] Therefore, to assess whether the corresponding positions of LRRC4 and LRRC4C were important in the binding of these proteins to FAM19A5 protein, cDNAs encoding either (i) LRRC4C protein fragment (amino acids 354-527 of SEQ ID NO: 3; SEQ ID NO: 66) or (ii) LRRC4 protein fragment (amino acids 353-527 of SEQ ID NO: 1; SEQ ID NO: 67) were constructed (see Table 7). HEK293 cells were transfected to express either of the protein fragments and then treated with recombinant FAM19A5 protein as described in Example 1. Then, the cell lysates from the different HEK293 cells were immunoprecipitated with the anti-FLAG antibody. The immunoprecipitated proteins were immunoblotted with anti-FLAG and anti-FAM19A5 (3-2) antibodies.

Assay [1] deals with APP/PS1 mice (Alzheimer mouse model). Nature of the assay: Synaptic formation in hippocampal CA1 and CA3 of APP/PS1 mice. Format: in vivo. The following applies: 30 mg/kg intravenous, four consecutive weeks; compared to mutant LRRC4B protein fragment. How it is done:
FIGS. 16A, 16B, and 16C show the ability of LRRC4B peptide fragment (amino acid residues 453-576 of SEQ ID NO: 2; “WT”) (i.e., SEQ ID NO: 7) to promote synaptic formation in the hippocampal CA1 of APP/PS1 mice. As further described in Example 8, APP/PS1 mice were treated with the LRRC4B peptide fragment (30 mg/kg; intravenous administration) for four consecutive weeks, and then synaptic formation was assessed by fluorescence microscopy using antibodies against SYP and PSD95. Control animals received no treatment (“Cont”) or the mutant LRRC4B peptide fragment […] (i.e., comprising alanine substitutions at positions 488 and 489 of SEQ ID NO: 2; SEQ ID NO: 16). FIG. 16A provides representative fluorescent photomicrographs. FIGS. 16B and 16C show the SYP and PSD95 intensity, respectively.
FIGS. 17A, 17B, and 17C show the ability of LRRC4B peptide fragment (amino acid residues 453-576 of SEQ ID NO: 2; “WT”; SEQ ID NO: 7) to promote synaptic formation in the hippocampal CA3 of APP/PS1 mice. The animals were treated and analyzed as described in FIGS. 16A-16C. FIG. 17A provides representative fluorescent photomicrographs. FIGS. 17B and 17C show the SYP and PSD95 intensity, respectively.
Additionally, to confirm the above effect on neurite outgrowth in vivo, APP/PS1 mice (Alzheimer mouse model) were used. […] Hong et al., Science 352(6286): 712-716 (May 2016). […]

B1: LRRC4B (453-576): LRRC4B fragment, amino acids 453-576 of SEQ ID NO: 2 (SEQ ID NO: 7); used hFc-fused (protein)
chain: VSAVDPVAAGGTGSGGGGPGGSGGVGGGSGGYTYFTTVTVETLETQPGEEALQPRGTEKEPPGPTTDGVWGGGRPGDAAGPASSSTTAPAPRSSRPTEKAFTVPITDVTENALKDLDDVMKTTK
modifications: human Fc fusion in use
notes: used hFc-fused
Take B1: the “binding to FAM19A5 protein (co-immunoprecipitation)” value in the assay with FAM19A5 protein is given as “able to bind to the FAM19A5 protein”. The “SYP and PSD95 immunoreactivities in CA1 and CA3” value in assay [1] was “increased SYP and PSD95 immunoreactivities”.
